According to IntAct's records for PubMed 19765570:

B1: Guanine nucleotide-binding protein alpha-4 subunit (Dictyostelium discoideum (Slime mold)), P34042 (parent)
chain: MRFKCFGSEETEQSSKIDKSIETDRRKLRKDVKLLLLGPGESGKSTIFKQMKIIQEDGGYSVEELLEYRAFVYSNCISQMEALLTASAKLNIELEVENKQRAANVLRRTIGNEPWLLLAADIKHLWEDKGIKETYAQKDKHFQLNDSAAYFFDNIDRYMREDFVPNEQDVLRCRVRTTGIQESEFTFDKIRLKIVDVGGQRSQRRKWIHCFDCVTAVIFVAAMSDYDQVLREDESVNRTRESLALFKEIVNCDYFKETPIVLFLNKKDLFKEKLKRVPLQSCFSDYTGPNKYKDAAMFIQSQYLAQGPSPRTIYTHATCAVDTENIKFVFRAVRQTILSQALEHF
partner: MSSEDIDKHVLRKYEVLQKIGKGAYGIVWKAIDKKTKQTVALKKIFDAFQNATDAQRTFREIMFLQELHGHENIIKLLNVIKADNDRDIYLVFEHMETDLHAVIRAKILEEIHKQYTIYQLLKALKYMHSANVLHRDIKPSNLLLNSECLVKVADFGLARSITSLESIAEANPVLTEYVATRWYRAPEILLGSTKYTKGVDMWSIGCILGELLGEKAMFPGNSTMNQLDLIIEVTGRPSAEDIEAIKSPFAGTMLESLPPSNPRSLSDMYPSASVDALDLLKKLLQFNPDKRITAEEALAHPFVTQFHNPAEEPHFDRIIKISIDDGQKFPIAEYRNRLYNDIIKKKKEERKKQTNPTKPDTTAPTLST

Variants of: B1
Settings: with erk2_dicdi erkB

effect of a mutation on the interaction | Variant
decreasing interaction | R107E;R108E
decreasing interaction | Q200L
